# Assay: soluble on expression in E. coli; label from the status in PepcDB or PDB records
row,Sequence,soluble on expression in E. coli
1,NEDNSFTVRANMTYAVSKVVHWDQDAVRYPYQSYSDVNYGVMRGLVALGLFQNQDEINRSPKQTYGEVRPGDIRYKDVNADGKIDDDDIVPIAHSNVPQIQYGFALEYRYKRWTISALFTGAAKVNFLYGGSGFYPFSGGEVGNILSIVNDPKNRWTPAWYSGDPSTENPNARFPRLTYGENKNNNRASTFWLADGSYLRWKSLDISYRIGTNKVLRTVGISDMNLQFVGQNLAVWDSVKLWDPGQASKNGAVYPLQRTFSLQLTATF,not soluble
2,MAQMYFYYSAMNAGKSTTLLQSAFNYQERGMNPLIFTAAIDDRFGVGKVSSRIGLEAEAHLFHADTDLLHVIATLHEAEPRHCILMDECQFLSKEQVYQLTEVVDKLDIPVLCYGLRTDFLGELFEGSKYLLSWADKLIELKTICHCGRKANMVIRTDEHGNAISEGDQVAIGGNDKYVSVCRQHYKEALGR,not soluble
3,MAHHHHHHMAALKNKIHRIGKRKGATLKDVSAWRWIKTAARHFKQEGKIFVPNCTEIMKSSHGRERAPQNPDWYYIRCAAVLRAIYLRPGVGYGGLSKRFGNKKNYGSRPEHTVTSSTGPLHWACKSLTKLGLVEPGAQSGQRLTRKGHKFADSLAFQVQIRKFGAST,soluble
4,MAHHHHHHMKNNEEWEKEKIYDRQLRLWGVKAQNRMMKSNVLILGLSGINIEICKNLILNGINITIIDDNIVDEEMVENIFFLNESDIQNYACVAIFKELKSINKMINMKAYIGRMDTSNDSIIIESELVQNADGEISNTKMGKTFSVEKYISNYTSVCVSCEDYPLYKLVKMNEFCHEKNIGFFAAMCNGKFAFLFSDFGNHVIEESYYKAKEGQRKGETGANKAGELQKEGETGANNGGIPIQYCTLSHFLKVPFENFDKKTNKIIFPMFALILFELNKQLNKSDKSIDEQEFSTFCDQFSLAKCKESLGEITKTYRVAFSPSCSIMGGVTSQEIRKFVSKQHESIPNFCVFDMNQSVVCTSMIS,not soluble
5,LRRGHLKLQRDGQIIGHTPEEWEQIFREVWPEYEIEPNPLPGYAPFDIGMWLTVEAPAYAVWIDPEDGSEYWAG,not soluble
6,MGSDKIHHHHHHMQDYYSTLIGWMIPISRAMEAHQIDLTTALKECNISQDVMTDQESRIAAEKFYNLIEYCNKKLGRHDFSILIAEQFHPGMFHALGYAMMSSNTLQDALDRIAHYKRVVSNTCQLVTYESNNQLVFEMNIFTYEGTNRPVLSLATVETFLATIIRFARELVTLDFSPEKICFAYQKPAHDVTYLEEFFNCDIEFNSDKNAIIFNFEQAQEKLMCGNPLITHSHEKMLDEFMARIDKNDLSHVIKNKIFDLLPLGAPSQIVIAEDLGMSLRNLQRKLQEQGTSYKEILESTRKKLAMDYIVQQHLSLSEIGYLVGFSSVGNFNRAFKRWTNQTPGEYRQSKKT,not soluble
7,QVQLQESGGGLVQPGGSLRLSCAASGFTFSNSAMSWVRQAPGKGLEWVSSISGSGGNTYSADSVKGRFTISRDNAKNSLYLQMNSLRAEDTAVYYCARDWYGMDVWGQGTTVTVSS,soluble
8,SLFGYHDVEDFQAEIGEYKIKTERIGPFYSYVRENGERKEKNLSVETGRIIVNPVEPVNLPKEITNFLQIKFSKPFLAEPKSAVEVYATFPVEIAVFIAAKKNVGLVDVFSLQKPKYTLYGNPRAGIICRYWESELYSEIPQVDKYREGVIKLRIVNSDDEWVEVSNAVFDVYGMKIYYNEEMVCSSASVNIVSPKVAETRFIEQPLREKMKKALELYTARRIAVTSLKFVMEWGL,not soluble
9,MAHHHHHHMLLAMCRYDCVGGCRERVCGGGGGGRGKGGEKKYRTEMGRASKDKRDIYYRKAKEEGYRARSAYKLLQLHEEFNILNRDEIQTGVVVLCAAPGSWSQLLARHLREEVGGRTEKQSLGAPRIVAVDLQEMMPIEGVQLLQGDITSEATAREIIRLLNIKEDTASVNDAYVDSEEDKSAIQTDKGGRSTARRPSLAPGGRNSYSDHTNSCEKKADLVVCDGAPDVTGMHELDEYLQHHLLLAALNITTFVLRCGGTFVTKIFRGPNTPFLVAKSEVFFRHVIIAKPRSSRNASMEAFMVCQDYQPPAGYRPSFDRPLTTTTRCFTPVAPLPPAFMHLQSEGRQITQKEKKGVEDQACMMESVIVPFLACGDLSGYDADMCYDRDSDVPVLPPVHPPRQAPYMTTACKNDEDSVVATNGAEDIMKRRRVE,not soluble
10,MGSDKIHHHHHHMEHIEKLNAVLKHIKTSFVGKDEIIDLLGISLIARENAFLLGPPGTAKSAIIRALSACISDGKNFEYLLTRFTEPGELFGPFDIRKLKEGDLVTNTEGMMPEASMVFLDEIFNANSAILNSLLTALNERIFRRGKETKKLPALMFIGASNVLPEDESLNALLDRFLIRARCDYVDTDLLEEVLVAGWNLETRNQNQKPAIAPAEIIELQQYAKQVDVSTVRRQYVDLIHNLRNTGIKISDRRAVKIQNLLAASAVMSNRKEVIPSDLWVLKHVWDTEEQIEILEGIINTIIEKDTNPLAHPQAQYNKTPNAEELIKEIIQLTEKWESGNLSFEEQNVVKDKLRYLQTRSNWIKNNEHKLHIQEKIESLWHKMLQTI,not soluble
11,GITPRFSITQDEEFIFLKIFISNIRFSAVGLEIIIQENMIIFHLSPYYLRLRFPHELIDDERSTAQYDSKDECINVKVAKLNKNEYFEDLDLPTKLLARQGDLAGADALTENTDAKKTQKPLIQEVETDGVSNN,soluble
12,MGSDKIHHHHHHMGVYHRIRVSRQTTTLPNIILTKKMIAAKDKAPQLTPQEYFIWEEQQLEKHEYINGEVYAMTGGSVNHGRIAIRFTAMFDSHLQNTGCITGNSDIKVNIFGSNNYTYPDASVTCDVRDQTTTQYITYPCLIVEVLSKTTEAYDRGGKFRMYRQNPALIDYLLVSSTSVEIDLYHKNDAGDWLIINYKPGDTIELKSINLNFPIEKVYRGLTLEPENGG,not soluble
13,AEVRPPFTYASLIRQAILESPEKQLTLNEIYNWFTRMFPYFRRNAATWKNAVRHNLSLHKYFVRVENVKGAVWTVDEVEFQKRRPQK,soluble
14,SKDELGEVIHAFNRMMTKLRKREKQRQHSLATLEQKRAFSEEVIESIQYALVITDNLGTIIHSNAATQHIFQKTPEALENANIRDLIKTKMPNELSQILSRCLECDDIHLQNIDNEQQLSLTTRRLSNHGYLLFAIQD,not soluble
15,MSDTVEELVQRAKLAEQAERYDDMAAAMKKVTEQGQELSNEERNLLSVAYKNVVGARRSSWRVISSIEQKTEGSEKKQQLAKEYRVKVEQELNDICQDVLKLLDEFLIVKAGAAESKVFYLKMKGDYYRYLAEVASEDRAAVVEKSQKAYQEALDIAKDKMQPTHPIRLGLALNFSVFYYEILNTPEHACQLAKQAFDDAIAELDTLNEDSYKDSTLIMQLLRDNLTLWTSDVGAEDQEQEGNQEAGN,soluble
16,SMSKRTFSTVLPQIDTTGQLFVQTRKGQEVLIKVKHFMKQHILPAEKEVTEFYVQNENSVDKWGKPLVIDKLKEMAKVEGLWNLFLPAVSGLSHVDYALIAEETGKCFFAPDVFNCQAPDTGNMEVLHLYGSEEQKKQWLEPLLQGNITSCFCMTEPDVASSDATNIECSIQRDEDSYVINGKKWWSSGAGNPKCKIAIVLGRTQNTSLSRHKQHSMILVPMNTPGVKIIRPLSVFGYTDNFHGGHFEIHFNQVRVPATNLILGEGRGFEISQGRLGPGRIHHCMRTVGLAERALQIMCERATQRIAFKKKLYAHEVVAHWIAESRIAIEKIRLLTLKAAHSMDTLGSAGAKKEIAMIKVAAPRAVSKIVDWAIQVCGGAGVSQDYPLANMYAITRVLRLADGPDEVHLSAIATMELRDQAKRLTAKI,soluble
17,MSNFWVIALNKNWATLDQVKEAYYYDDVTKEELKEGVDNNLITPEQYQEIVGEAYTSVTLSTELEHHHHHH,not soluble
18,MPEITESERAYHLRKMKTRMQRVDVTGDGFISREDYELIAVRIAKIAKLSAEKAEETRQEFLRVADQLGLAPGVRISVEEAAVNATDSLLKMKGEEKAMAVIQSLIMYDCIDTDKDGYVSLPEFKAFLQAVGPDLTDDKAITCFNTLDFNKNGQISRDEFLVTVNDFLFGLEETALANAFYGDLVD,soluble
19,MYTAIVNLKTYREATGANFTRFMEKFEPVQGKFELIFSPSLLDLEKAAKCGKFRFFAQHVDAEPYGAYTGHVPMDMMIDLGITGSILNHSERRLPRDTIINTLKKASKLDFTIVLCVENAEEAKYFREYEPDFIAYEPRDLIGGDVSVSTAKPEIIEDIVKIYEGTGTSVLVGAGIKTGEDVRRSIGLGARGILVASGVVKSADPTKSLNSLIELK,not soluble
